Literature values in patent publication US20140213534A1, “INTESTINAL HYPERPERMEABILITY AND PREVENTION OF SYSTEMIC DISEASE” (Thomas Jefferson University, priority 2011, published 2014).

Target: ST receptors (Homo sapiens, UniProt P25092)
Settings: relative to native ST; Currie et al. 1992

Chain of ST receptors (P25092 24-1073): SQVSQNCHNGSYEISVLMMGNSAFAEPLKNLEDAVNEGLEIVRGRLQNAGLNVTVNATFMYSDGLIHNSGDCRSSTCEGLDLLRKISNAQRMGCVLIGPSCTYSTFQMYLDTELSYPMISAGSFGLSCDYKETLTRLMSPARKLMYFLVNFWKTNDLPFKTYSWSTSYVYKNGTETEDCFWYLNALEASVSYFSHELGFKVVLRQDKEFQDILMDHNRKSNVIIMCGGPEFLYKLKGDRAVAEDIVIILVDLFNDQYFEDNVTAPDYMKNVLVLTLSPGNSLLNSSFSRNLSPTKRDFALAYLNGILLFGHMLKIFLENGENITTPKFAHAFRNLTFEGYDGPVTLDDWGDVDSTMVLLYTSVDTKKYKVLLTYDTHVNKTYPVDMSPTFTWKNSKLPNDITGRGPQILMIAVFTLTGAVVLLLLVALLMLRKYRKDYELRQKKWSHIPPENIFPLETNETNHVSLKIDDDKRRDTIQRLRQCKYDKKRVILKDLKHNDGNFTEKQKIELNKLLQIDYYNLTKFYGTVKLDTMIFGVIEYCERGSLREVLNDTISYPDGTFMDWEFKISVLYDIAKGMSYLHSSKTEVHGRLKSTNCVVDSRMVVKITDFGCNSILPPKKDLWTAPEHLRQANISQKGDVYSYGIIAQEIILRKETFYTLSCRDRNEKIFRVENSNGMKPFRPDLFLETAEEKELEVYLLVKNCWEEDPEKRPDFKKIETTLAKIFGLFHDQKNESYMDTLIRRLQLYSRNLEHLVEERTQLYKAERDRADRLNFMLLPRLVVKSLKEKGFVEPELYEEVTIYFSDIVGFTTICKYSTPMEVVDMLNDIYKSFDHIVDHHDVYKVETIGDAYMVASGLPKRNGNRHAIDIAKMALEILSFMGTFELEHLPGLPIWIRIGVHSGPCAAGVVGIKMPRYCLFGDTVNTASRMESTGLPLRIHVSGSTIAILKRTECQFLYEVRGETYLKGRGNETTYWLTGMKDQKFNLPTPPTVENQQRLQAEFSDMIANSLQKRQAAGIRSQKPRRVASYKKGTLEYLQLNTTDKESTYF

activates guanylate cyclase at a level fold less than native ST: 10- to 100 fold
Substance: Guanylin: 15 amino acid peptide with about 50% sequence homology to ST, identified in mammalian intestine; endogenous GCC agonist (PNTCEICAYAACTGC; Rattus Norvegious)
